Test results from patent US20230406951A1 (Pfizer, published 2023).

T1: human TNFR2 (human, UniProt P20333 23-461)
T1 construct: expressed on the surface of CHO cells; also called HuTNFR2; TNFRSF1B
T1 sequence: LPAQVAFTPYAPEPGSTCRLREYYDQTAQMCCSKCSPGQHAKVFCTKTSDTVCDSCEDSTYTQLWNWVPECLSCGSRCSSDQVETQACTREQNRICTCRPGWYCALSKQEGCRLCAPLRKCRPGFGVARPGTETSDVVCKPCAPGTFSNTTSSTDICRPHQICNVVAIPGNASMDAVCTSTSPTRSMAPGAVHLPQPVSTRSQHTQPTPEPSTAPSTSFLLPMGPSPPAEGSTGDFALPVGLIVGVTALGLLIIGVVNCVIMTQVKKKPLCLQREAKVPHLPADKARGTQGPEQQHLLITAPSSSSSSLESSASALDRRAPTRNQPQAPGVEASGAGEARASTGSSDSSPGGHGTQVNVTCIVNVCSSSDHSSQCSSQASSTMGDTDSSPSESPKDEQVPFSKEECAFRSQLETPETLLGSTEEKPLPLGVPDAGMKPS

B1: IgG 1945 (antibody, name in Kabat numbering, V domains shown)
VH: QVQLVQSGAEVKKPGASVKVSCKVSGFSFPSSGVDWVRQAPGQGLEWLGVTRGEGSTHYNQKFQGRVTITKDTSKSTVYMELSSLRSEDTAVYYCASGEWDEGFVYWGQGTLVTVSS
VL: DIQLTQSPSFLSASVGDRVTITCKASQNVGTAVAWYQQKPGKAPKLLIYAASTLQSGVPSRFSGSGSGTEFTLTISSLQPEDFATYYCLQYSSYPLTFGGGTKVEIKR
notes: IgG
B2: IgG 1938 (antibody, name in Kabat numbering, V domains shown)
VH: QVQLVQSGAEVKKPGASVKVSCKVSGFSFPSSGVDWVRQAPGQGLEWLGVTLGHGSTHYNQKFQGRVTITKDTSKSTVYMELSSLRSEDTAVYYCASGEWDEGFVYWGQGTLVTVSS
VL: DIQLTQSPSFLSASVGDRVTITCKASQNVGTAVAWYQQKPGKAPKLLIYAASTLQSGVPSRFSGSGSGTEFTLTISSLQPEDFATYYCLQKSSYPLTFGGGTKVEIKR
notes: IgG
B3: IgG 1909 (antibody, name in Kabat numbering, V domains shown)
VH: QVQLVQSGAEVKKPGASVKVSCKVSGFSFPSSGVDWVRQAPGQGLEWLGVTRGEGSTHYNQKFQGRVTITKDTSKSTVYMELSSLRSEDTAVYYCASGEWDEGFVYWGQGTLVTVSS
VL: DIQLTQSPSFLSASVGDRVTITCKASQNVGTAVAWYQQKPGKAPKLLIYAASTLQSGVPSRFSGSGSGTEFTLTISSLQPEDFATYYCQQYSSYPLTFGGGTKVEIKR
notes: IgG
B4: IgG 1943 (antibody, name in Kabat numbering, V domains shown)
VH: QVQLVQSGAEVKKPGASVKVSCKVSGFSFPSSGVDWVRQAPGQGLEWLGVTWGVGSTHYNQKFQGRVTITKDTSKSTVYMELSSLRSEDTAVYYCASGEQDEGFVYWGQGTLVTVSS
VL: DIQLTQSPSFLSASVGDRVTITCKASQNVGTAVAWYQQKPGKAPKLLIYAASTLQSGVPSRFSGSGSGTEFTLTISSLQPEDFATYYCLQKSSYPLTFGGGTKVEIKR
notes: IgG
B5: IgG 1914 (antibody, name in Kabat numbering, V domains shown)
VH: QVQLVQSGAEVKKPGASVKVSCKVSGFSFPSSGVDWVRQAPGQGLEWLGVTWGVGSTHYNQKFQGRVTITKDTSKSTVYMELSSLRSEDTAVYYCASGEHDEGFVYWGQGTLVTVSS
VL: DIQLTQSPSFLSASVGDRVTITCKASQNVGTAVAWYQQKPGKAPKLLIYAASTLQSGVPSRFSGSGSGTEFTLTISSLQPEDFATYYCQQYSSYPLTFGGGTKVEIKR
notes: IgG
B6: IgG 1944 (antibody, name in Kabat numbering, V domains shown)
VH: QVQLVQSGAEVKKPGASVKVSCKVSGFSFPSSGVDWVRQAPGQGLEWLGVTKGQGSTHYNQKFQGRVTITKDTSKSTVYMELSSLRSEDTAVYYCASGEWDEGFVYWGQGTLVTVSS
VL: DIQLTQSPSFLSASVGDRVTITCKASQNVGTAVAWYQQKPGKAPKLLIYAASTLQSGVPSRFSGSGSGTEFTLTISSLQPEDFATYYCLQYSSYPLTFGGGTKVEIKR
notes: IgG
B7: IgG 1946 (antibody, name in Kabat numbering, V domains shown)
VH: QVQLVQSGAEVKKPGASVKVSCKVSGFSFPSSGVDWVRQAPGQGLEWLGVTFQEGSTHYNQKFQGRVTITKDTSKSTVYMELSSLRSEDTAVYYCASGEWDEGFVYWGQGTLVTVSS
VL: DIQLTQSPSFLSASVGDRVTITCKASQNVGTAVAWYQQKPGKAPKLLIYAASTLQSGVPSRFSGSGSGTEFTLTISSLQPEDFATYYCLQYSSYPLTFGGGTKVEIKR
notes: IgG
B8: IgG 1942 (antibody, name in Kabat numbering, V domains shown)
VH: QVQLVQSGAEVKKPGASVKVSCKVSGFSFPSSGVDWVRQAPGQGLEWLGVTWGVGSTHYNQKFQGRVTITKDTSKSTVYMELSSLRSEDTAVYYCASGERDEGFVYWGQGTLVTVSS
VL: DIQLTQSPSFLSASVGDRVTITCKASQNVGTAVAWYQQKPGKAPKLLIYAASTLQSGVPSRFSGSGSGTEFTLTISSLQPEDFATYYCLQKSSYPLTFGGGTKVEIKR
notes: IgG
B9: IgG 1916 (antibody, name in Kabat numbering, V domains shown)
VH: QVQLVQSGAEVKKPGASVKVSCKVSGFSFPSSGVDWVRQAPGQGLEWLGVTWGVGSTHYNQKFQGRVTITKDTSKSTVYMELSSLRSEDTAVYYCASGEQDEGFVYWGQGTLVTVSS
VL: DIQLTQSPSFLSASVGDRVTITCKASQNVGTAVAWYQQKPGKAPKLLIYAASTLQSGVPSRFSGSGSGTEFTLTISSLQPEDFATYYCQQYSSYPLTFGGGTKVEIKR
notes: IgG
B10: IgG 1936 (antibody, name in Kabat numbering, V domains shown)
VH: QVQLVQSGAEVKKPGASVKVSCKVSGFSFPSSGVDWVRQAPGQGLEWLGVTRGEGSTHYNQKFQGRVTITKDTSKSTVYMELSSLRSEDTAVYYCASGEWDEGFVYWGQGTLVTVSS
VL: DIQLTQSPSFLSASVGDRVTITCKASQNVGTAVAWYQQKPGKAPKLLIYAASTLQSGVPSRFSGSGSGTEFTLTISSLQPEDFATYYCLQKSSYPLTFGGGTKVEIKR
notes: IgG
B11: IgG 1912 (antibody, name in Kabat numbering, V domains shown)
VH: QVQLVQSGAEVKKPGASVKVSCKVSGFSFPSSGVDWVRQAPGQGLEWLGVTHGSGSTHYNQKFQGRVTITKDTSKSTVYMELSSLRSEDTAVYYCASGEWDEGFVYWGQGTLVTVSS
VL: DIQLTQSPSFLSASVGDRVTITCKASQNVGTAVAWYQQKPGKAPKLLIYAASTLQSGVPSRFSGSGSGTEFTLTISSLQPEDFATYYCQQYSSYPLTFGGGTKVEIKR
notes: IgG
B12: IgG 1913 (antibody, name in Kabat numbering, V domains shown)
VH: QVQLVQSGAEVKKPGASVKVSCKVSGFSFPSSGVDWVRQAPGQGLEWLGVTWGVGSTHYNQKFQGRVTITKDTSKSTVYMELSSLRSEDTAVYYCASGESTEGFVYWGQGTLVTVSS
VL: DIQLTQSPSFLSASVGDRVTITCKASQNVGTAVAWYQQKPGKAPKLLIYAASTLQSGVPSRFSGSGSGTEFTLTISSLQPEDFATYYCQQYSSYPLTFGGGTKVEIKR
notes: IgG
B13: IgG 1911 (antibody, name in Kabat numbering, V domains shown)
VH: QVQLVQSGAEVKKPGASVKVSCKVSGFSFPSSGVDWVRQAPGQGLEWLGVTLGHGSTHYNQKFQGRVTITKDTSKSTVYMELSSLRSEDTAVYYCASGEWDEGFVYWGQGTLVTVSS
VL: DIQLTQSPSFLSASVGDRVTITCKASQNVGTAVAWYQQKPGKAPKLLIYAASTLQSGVPSRFSGSGSGTEFTLTISSLQPEDFATYYCQQYSSYPLTFGGGTKVEIKR
notes: IgG
B14: IgG 1910 (antibody, name in Kabat numbering, V domains shown)
VH: QVQLVQSGAEVKKPGASVKVSCKVSGFSFPSSGVDWVRQAPGQGLEWLGVTFQEGSTHYNQKFQGRVTITKDTSKSTVYMELSSLRSEDTAVYYCASGEWDEGFVYWGQGTLVTVSS
VL: DIQLTQSPSFLSASVGDRVTITCKASQNVGTAVAWYQQKPGKAPKLLIYAASTLQSGVPSRFSGSGSGTEFTLTISSLQPEDFATYYCQQYSSYPLTFGGGTKVEIKR
notes: IgG
B15: IgG 1915 (antibody, name in Kabat numbering, V domains shown)
VH: QVQLVQSGAEVKKPGASVKVSCKVSGFSFPSSGVDWVRQAPGQGLEWLGVTWGVGSTHYNQKFQGRVTITKDTSKSTVYMELSSLRSEDTAVYYCASGERDEGFVYWGQGTLVTVSS
VL: DIQLTQSPSFLSASVGDRVTITCKASQNVGTAVAWYQQKPGKAPKLLIYAASTLQSGVPSRFSGSGSGTEFTLTISSLQPEDFATYYCQQYSSYPLTFGGGTKVEIKR
notes: IgG
B16: IgG 1941 (antibody, name in Kabat numbering, V domains shown)
VH: QVQLVQSGAEVKKPGASVKVSCKVSGFSFPSSGVDWVRQAPGQGLEWLGVTWGVGSTHYNQKFQGRVTITKDTSKSTVYMELSSLRSEDTAVYYCASGEHDEGFVYWGQGTLVTVSS
VL: DIQLTQSPSFLSASVGDRVTITCKASQNVGTAVAWYQQKPGKAPKLLIYAASTLQSGVPSRFSGSGSGTEFTLTISSLQPEDFATYYCLQKSSYPLTFGGGTKVEIKR
notes: IgG
B17: IgG 1908 (antibody, name in Kabat numbering, V domains shown)
VH: QVQLVQSGAEVKKPGASVKVSCKVSGFSFPSSGVDWVRQAPGQGLEWLGVTKGQGSTHYNQKFQGRVTITKDTSKSTVYMELSSLRSEDTAVYYCASGEWDEGFVYWGQGTLVTVSS
VL: DIQLTQSPSFLSASVGDRVTITCKASQNVGTAVAWYQQKPGKAPKLLIYAASTLQSGVPSRFSGSGSGTEFTLTISSLQPEDFATYYCQQYSSYPLTFGGGTKVEIKR
notes: IgG
B18: IgG 1947 (antibody, name in Kabat numbering, V domains shown)
VH: QVQLVQSGAEVKKPGASVKVSCKVSGFSFPSSGVDWVRQAPGQGLEWLGVTLGHGSTHYNQKFQGRVTITKDTSKSTVYMELSSLRSEDTAVYYCASGEWDEGFVYWGQGTLVTVSS
VL: DIQLTQSPSFLSASVGDRVTITCKASQNVGTAVAWYQQKPGKAPKLLIYAASTLQSGVPSRFSGSGSGTEFTLTISSLQPEDFATYYCLQYSSYPLTFGGGTKVEIKR
notes: IgG
B19: IgG 1937 (antibody, name in Kabat numbering, V domains shown)
VH: QVQLVQSGAEVKKPGASVKVSCKVSGFSFPSSGVDWVRQAPGQGLEWLGVTFQEGSTHYNQKFQGRVTITKDTSKSTVYMELSSLRSEDTAVYYCASGEWDEGFVYWGQGTLVTVSS
VL: DIQLTQSPSFLSASVGDRVTITCKASQNVGTAVAWYQQKPGKAPKLLIYAASTLQSGVPSRFSGSGSGTEFTLTISSLQPEDFATYYCLQKSSYPLTFGGGTKVEIKR
notes: IgG
B20: IgG 1940 (antibody, name in Kabat numbering, V domains shown)
VH: QVQLVQSGAEVKKPGASVKVSCKVSGFSFPSSGVDWVRQAPGQGLEWLGVTWGVGSTHYNQKFQGRVTITKDTSKSTVYMELSSLRSEDTAVYYCASGESTEGFVYWGQGTLVTVSS
VL: DIQLTQSPSFLSASVGDRVTITCKASQNVGTAVAWYQQKPGKAPKLLIYAASTLQSGVPSRFSGSGSGTEFTLTISSLQPEDFATYYCLQKSSYPLTFGGGTKVEIKR
notes: IgG

These binders were tested against T1, human TNFR2 (assay: binding to human TNFR2 CHO cells).

Binding result, no binding:
B1
B2
B3
B4
B5
B6
B7
B8
B9
B10
B11
B12
B13
B14
B15
B16
B17
B18
B19
B20
